Tested on: K4 kissing-loop RNA reporter
Test: apparent KD of K4 kissing-loop reporter; higher = weaker reporter binding
Details: Eterna round: R107
Method: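 RNA-MaP round R107: designed RNA switches with theophylline, tryptophan, arginine or FMN aptamers are transcribed on-chip within common flanks. They are titrated with a labelled K4 kissing-loop RNA reporter in RNA-MaP buffer (100 mM Tris pH 7.5, 80 mM KCl, 4 mM MgCl2), without ligand or with the indicated ligand. Median apparent KD per design.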

[1] = input ligand: theophylline 20 uM
[2] = input ligand: tryptophan 2.4 mM
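Further: bound reporter read as fluorescence of individual clusters on recovered sequencing chips by microscopy, with normalized cluster intensities fitted with a binding model.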

Row | Sequence | apparent KD of K4 kissing-loop reporter (input ligand: FMN 200 uM) [nM] | apparent KD of K4 kissing-loop reporter (input ligand: arginine 13.2 mM) [nM] | apparent KD of K4 kissing-loop reporter (input ligand: none) [nM] | apparent KD of K4 kissing-loop reporter [1] [nM] | apparent KD of K4 kissing-loop reporter [2] [nM]
1 | ACGCGCGCGAGUGAUGUUCGGAGCGGCUGGCAGGAUAUGGAGCAAUCCAGAAGGGUCGUGGCUGCUGGUAGGAAACUACUGGCAG [#2 Exclusion - FMN A Attempt #3 (HarryS)] | 135 | 239 | 350 | 330 | 299
2 | ACAGAGGUAACCUGCAGUGAUGUUGCGGAUACCAGCUCACGAAACAGCCCUUGGCAGCCGCCGUCACUAACACGGUGGAUACAGU [theeternabot_exclusion_KL_Theo_A_49] | 257 | 168 | 230 | 178 | 181
3 | AUCGUUGUCUGAGGAUAUCGGUUAACUGUAGUGAUGUUACAGAAAAUUCAUAUUAUAUUUUCUAUUCGAGAAGGCAGACUACGUA [JR_Nu3_ExcFMNB_Sub019] | 203 | 141 | 160 | 145 | 157
4 | GAAUUUGCCGAUCAAAGUGAUGUUUUGGAUACCAGCCAUCAAGCUGGCCCUUGGCAGCCAACGUCGGCUGGCGACCGUGCGGACU [theeternabot_exclusion_KL_Theo_A_50] | 383 | 253 | 347 | 310 | 285
5 | UAGCGUAUUGAAGGAUAUUGCCUAGGAGUGAUGUUUGUAGAAAAUUUCCAACGGAACGAAUGUUAGCAAGAAGGUCAAUGGCCUU [theeternabot_exclusion_KL_FMN_B_40] | 230 | 239 | 404 | 456 | 281
6 | AAUUAAUGUAUAGAUUAUAUACAUUAAUCAGAGGAUAUGCAUUAUUGCAGAAGGCUGAAUGCAGUGAUGUUGCAAUAAUAAUUUA [JR_SSFMNA_Sub003] | 60.6 | 229 | 186 | 313 | 151
7 | AAGAAGGUCAAAGACCUUCGUGCACGUGAUACCAGUCGCGAAAGCGACCCUUGGCAGCACGGCAGUGAUGUUGCCAAGUGCACAA [#12 K4 Theophylline A Same State] | 407 | 249 | 498 | 664 | 545
8 | UUCUACGAGUGAUGUUCGUAGUGUAAUAGUUAGGAUAUCGUUUUUUCGAGAAGGAACUUCGAAGUGAUACGAAAGUAUCGCUUCG [FMN A 11] | 122 | 117 | 126 | 132 | 136
9 | GGGUGUAGUGCGGCCGCCACUGUGAAAGUAGAAGAAUAUAGUGAUGUUAUAUAGGAUUAAAAGAAUAGGACCGGGCAUUAGACUU [#23 K4 Tryptophan B Same State] | 214 | 236 | 284 | 248 | 182
10 | GGAUAGGACAGAGGAUAUGGAGCUAGGCAAGAAUAACUUGUCUAGCAAUCCAUGAGGAGUGAUGUUCCAGAAGGCUGUCCUAUCG [FmnBX 2 - #SwitchBubble #StraticStem #DoubleMagnetSystem] | 825 | 156 | 155 | 163 | 116
11 | ACGAUCUUCGGCCUAUGAGUGAUGUUUAUGCGAGGACCGGUACGGCCGCCACUCGGGCGGUUAUUCACUACGCCUCUUCCGUCGA [theeternabot_exclusion_KL_Trp_A_37] | 900 | 435 | 1040 | 517 | 649
12 | CCAUCGCUAUUCGAUACCAGUCAGGAGGUCUAUGACCUCCUAAUGGAGUGAUGUUCCUUAGACCCUUGGCAGCGAAUAGUGAUGG [#01 K4 Theophylline B Same State] | 509 | 480 | 569 | 338 | 534
13 | UUUAUAAAGUCGGCCGCCACUGGUUUUAUUUUUGUUUAAUCUGGAUCAUAGUGAUGUUAUGAGACCAGGACCGGGACAUUUGUUA [#08 K4 Tryptophan B Exclusion] | 89.5 | 86 | 88.2 | 93.8 | 132
14 | AUCACAGUGAUGUUGUGAUAUACUUCAGAUACCAGACUAGUGCUAGUCCCUUGGCAGCUGAACUCAGCAGCACCACUAGCACUCG [Theo A Ex t6a] | 153 | 130 | 139 | 144 | 134
15 | UUCCAGUGAUGUUGGUAUCUGAUAAGGGAAGGAGCGCGGAUUAACGCAGGUAGGUCGCCCAAGUAAUAAAUGUUUAUUAAUUGAU [Default title] | 183 | 193 | 201 | 161 | 188
16 | UGUGUUGUUUUGAUGUUUGGUGUUGCAUGGCAGGAUAUCGUAGAGGCGAGAAGGGCUUUUGUGCGGUAUGAGUGAUGUUUGUAGG [iihymullin] | 509 | 372 | 509 | 466 | 398
17 | UCUUUUGUAUAUGAUACCAGCAGUGAGAGACAGGAAGUAUAGUGAUGUUAUAUGAGAGAAUGCCCUUGGCAGCGUGUGCGGUGGG [SSTheophylB.U] | 151 | 146 | 114 | 178 | 108
18 | CAAUGAGUAUAAGAUGAUAUCAUCACAGAAGGAGCGAGUGAUAACUCAGGUAGGUCGCUGAAUUUGUCGAGUGAUGUUCGAUAGA [whbob_SS_Arginine_A_sa119] | 209 | 173 | 204 | 188 | 182
19 | UAUUAAUUGUCAGGAUAUCGAAAUCGAGUGAUGUUCGUAAAUUAAUUAUUAUUAAUAAUAUUUAUACGAGAAGGGACAUUAUUUA [JR_SSFMNB_Sub002] | 236 | 671 | 758 | 780 | 532
20 | AUUUUAAUCGCAGAUACCAGUCCAGAAUGAAUACUAUAGUGAUGUUAUAAUAAAGGGAAGGACCCUUGGCAGCUGUACUAUAUUA [AstrosSsTheB#9] | 467 | 287 | 445 | 304 | 281
21 | UACUUAUAGUUAUUUCUACAUUUAUUUAGUCAGGAUAUCGAUUAGUCGAGAAGGGACAAUAUCAAGUGAUGUUUGAUAAUUCAAA [JR_ExcFMNA_Sub012] | 89.9 | 161 | 119 | 158 | 84.9
22 | GCCAGAGCGCGAAGGAGCGCCGUGACAGGUUGCUGCCGUGGGCAGUGAUGUUGCUCAGUCUGGCAGGUAGGUCGCGUGCUCUGGC | 196 | 173 | 205 | 228 | 219

Row | Sequence | apparent KD of K4 kissing-loop reporter (input ligand: FMN 200 uM) [nM] | apparent KD of K4 kissing-loop reporter (input ligand: arginine 13.2 mM) [nM] | apparent KD of K4 kissing-loop reporter (input ligand: none) [nM] | apparent KD of K4 kissing-loop reporter [1] [nM] | apparent KD of K4 kissing-loop reporter [2] [nM]
23 | AAUAUAGUGAUGUUAUAUAAGAAGGAGUUACGAGGACCGGUACGGCCGCCACUCGAAACGAGUGAUGAUUUGGGAGAUUGGGUUG [SSTryptA.N] | 484 | 347 | 489 | 433 | 370
24 | CCGCCAUCAUCAGAUACCAGGCUGAUGGCGGUAACCGCCAAGCGAGUGAUGUUCGCAUCAGUCCCUUGGCAGCUGAUGAAGACUG [#15 K4 Theophylline B Same State] | 194 | 94.3 | 146 | 155 | 95.2
25 | UGAUAGGAGUGAAGGAGCGGGAGUGAUGUUCCCAAAAUGGAAGCCUGUAAAAUACAGGCCUCCCAGGUAGGUCGCACUCCUAUCU [KL-XARG-B17] | 98.3 | 112 | 101 | 117 | 94.7
26 | UCUGGAGCAUAUGAUACCAGCAGUGAGAGACAGGAAGUAUAGUGAUGUUAUAUGAGAGAAUGCCCUUGGCAGCGUGUGCAGUGGC [SSTheophylB.P] | 104 | 96.5 | 65 | 94.9 | 59.7
27 | UUUAAAUAUAGUGAUGUUAUAUAACAAUGACGAGGACCGGUACGGCCGCCACUCGAGAGAGAUAAUGGUAAAAUAAAUAAUUUUC [AstrosSSTryA#3] | 395 | 585 | 709 | 783 | 389
28 | AAUAAAAUCACGGCCGCCACUGAAUAAUUGUUAAGUAGUGAUGUUACUUUACUUUUCUUAGUUAACAGGACCGGGUGAAUAUUUA [#18 K4 Tryptophan B Exclusion] | 113 | 101 | 107 | 101 | 190
29 | AUAUAGUGAUGUUAUAUAAUAAUCUCUGAUACCAGUCAUUUAGAAGACCCUUGGCAGCAGCUAUAUAUAGGGAAACAAUACAUAA [AstrosExytheA#1] | 739 | 649 | 709 | 925 | 491
30 | AGGGUAAGGCGUUAACAUGACACCUGGGAAGGAGCGCAGUACACUGCAGGUAGGUCGCCCAGUGAUGUUGGGCGUAUGUAUUAGU [Legexeso] | 140 | 143 | 153 | 200 | 119
31 | GUGCGGCUAGUGAUGUUGGUUGCGUGGGAAGGAGCGCAGAAACAUGCAGGUAGGUCGCCCACAUCUCGGAUAAGAGAUUAAUUCC [Arorso] | 291 | 153 | 252 | 262 | 244
32 | CUUGAAAUGACUGAUACCAGUGAAAAUCUAUGUAGUGAUGUUAUAUACUAAUUUAAUAAGCGCCCUUGGCAGCAGUAUGAAUUAU [AstrosExc-theB#18] | 657 | 260 | 532 | 561 | 445
33 | AGUGAAGUUAGUGAUGUGUGAGUUUGGGAAGGAGCGCCGAGGAAGGCAGGUAGGUCGCCCAGUGAUGUUGGUGUAAAGAUGAGAG [whbob_Ex_Arginine_A_2t122] | 308 | 135 | 158 | 254 | 231
34 | CUUGAAAUGACUGAUACCAGUGAAAAUAUAUGUAGUGAUGUUAUAUACUAAUUUAAUAAGCGCCCUUGGCAGCAGUAUGAAUUAU [AstrosExc-theB#17] | 861 | 516 | 868 | 764 | 702
35 | UGACAUUGCUCAGAUACCAGACUUGAGGAUCACCCAGGUGCCAAACGUACAAUAAUAAAAGUCCCUUGGCAGCUGAGCAAUGUCU [TheoBX 14] | 65.7 | 51.7 | 30.2 | 69.9 | 55.3
36 | CGUACAUCUUUUCGCGGAGUGAUGUUCUCGCGAGGACCGGUACGGCCGCCACUCGAAUUGUUAUCUGGCGAAAAUUGUCUAUAAA [theeternabot_exclusion_KL_Trp_A_33] | 393 | 273 | 352 | 318 | 410
37 | GCCGUAGAUUGAAGGAGCGGACAGAUACGGGUAUCCAGUGAUGUUGGAAGGUAGCUACUAGUCCAGGUAGGUCGCAAUCUACGGC | 283 | 111 | 304 | 286 | 164
38 | AGAGUCGGCUGUGAUACCAGUCGUAUAACAACAUGUCGCAGUGAUGUUGCGAGAUAGGAUGACCCUUGGCAGCACUCAGUACGAU [Same State Theophylline B GF 7] | 425 | 372 | 347 | 404 | 426
39 | UCGGACCCUGGAGGAUAUGAGUCGAGUGAUGUUCGGCGGUCCAUGCUGGUGCGGCGUUAUGCCCUUUUAGAAGGCCAGGGUCCGA [#2 Exclusion - FMN B Attempt #12 (HarryS)] | 220 | 147 | 194 | 174 | 162
40 | GCAACAUUGGAAGGAUAUCAUUCUGAGUGAUGUUCAGGGUUCAGCUAACGAAAGUUAGUUGUACCAUGAGAAGGUCUAAUGUUGC [Omei KL FMN B SS A v4] | 332 | 646 | 1610 | 1220 | 1010
41 | AGUGAUGUUUUUUUUAAGAGUGAUGUUUUUCGAGGACCGGUACGGCCGCCACUCGAGUGAUGAGUGAGGUGUGGUGAUGUUUAGU [#09 K4 Tryptophan A Exclusion] | 287 | 279 | 351 | 316 | 205
42 | ACACGGGUCUCGGCCGCCACUCUGCCUACCACCAUUAGUGCCAGUGAUGUUGGCAGGUGAGGGCUGAGGACCGGGAGAUCCAUAC [Zaremais] | 140 | 124 | 136 | 122 | 107
43 | AAAGUUGAUGAGUUGGGUAUGUGUUCCGAAGGAGCGAGAUUUAUCUCAGGUAGGUCGCGGAACUUGAGUGAUGUUCAUGUAUAAA [KL-XArg-A9 #analogue] | 356 | 408 | 491 | 637 | 305

From the supplement of paper PMC9170038
